From FireProtDB (doi:10.1021/bi00213a031)
“And” between values parts separate entries of the source, which are not always exact repeats. Equal entries are not always repeated.

Conditions: Escherichia coli (strain K12), pH 7.8, 25 °C, Urea, phosphate 58 mM, transition: 3, whole UniProt chain shown

B1: Tryptophan synthase alpha chain wild type, P0A877 (protein)
chain: MERYESLFAQLKERKEGAFVPFVTLGDPGIEQSLKIIDTLIEAGADALELGIPFSDPLADGPTIQNATLRAFAAGVTPAQCFEMLALIRQKHPTIPIGLLMYANLVFNKGIDEFYAQCEKVGVDSVLVADVPVEESAPFRQAALRHNVAPIFICPPNADDDLLRQIASYGRGYTYLLSRAGVTGAENRAALPLNHLVAKLKEYNAAPPLQGFGISAPDQVKAAIDAGAAGAISGSAIVKIIEQHINEPEKMLAALKVFVQPMKAATRS
- denaturant m value (Absorbance): 2.8 kcal/mol/M and 1.3 kcal/mol/M
- denaturant midpoint (higher = more stable) (Absorbance): 2.5 M and 3.9 M
- unfolding free energy (Absorbance): 6.8 kcal/mol and 5.1 kcal/mol
- denaturant m value (CD): 2.5 kcal/mol/M and 1.2 kcal/mol/M
- denaturant midpoint (higher = more stable) (CD): 2.5 M and 4 M
- unfolding free energy (CD): 6.2 kcal/mol and 4.6 kcal/mol
